Read-outs that look alike come from different tables or passages of the source.
B1: rrnAP3 promoter fragment (150 bp) (dsDNA)
DNA 1: ATCGAACGGGTATGCTGTTAGGCGACGGTCACCTATGGATATCTATGGATGACCGAACCTGGTCTTGACTCCATTGCCGGATTTGTATTAGACTGGCAGGGTTGCCCCGAAGCGGGCGGAAACAAGCAAGCGTGTTGTTTGAGAACTCAA
DNA 2: TTGAGTTCTCAAACAACACGCTTGCTTGTTTCCGCCCGCTTCGGGGCAACCCTGCCAGTCTAATACAAATCCGGCAATGGAGTCAAGACCAGGTTCGGTCATCCATAGATATCCATAGGTGACCGTCGCCTAACAGCATACCCGTTCGAT
B2: sinP3 promoter fragment (127 bp) (dsDNA)
DNA 1: TTTAAACAAAAAGTCTGCTCATCCTGGTCCGGCAGCCAGAAGTCATACCGTAAATCCTTTCTGAATGTGCTATAATATCACAAGGAAGGTGATGACATTGATTGGCCAGCGTATTAAACAATACCGT
DNA 2: ACGGTATTGTTTAATACGCTGGCCAATCAATGTCATCACCTTCCTTGTGATATTATAGCACATTCAGAAAGGATTTACGGTATGACTTCTGGCTGCCGGACCAGGATGAGCAGACTTTTTGTTTAAA

How the values were obtained:
Test in all cases: EMSA
[1] = target: T1, RNAP core enzyme (alpha2 beta beta' omega);sigmaA;RbpA (Mycobacterium tuberculosis (H37Rv for …, UniProt P9WGZ1;P9WGY9;P9WGY7;P9WGY5;P9WGI1;P9WHJ5 1-347;1-1178;1-1316;1-110;1-528;1-111, ||))
[2] = target: RNAP core enzyme (alpha2 beta beta' omega);sigmaA (Mycobacterium tuberculosis (H37Rv for …, UniProt P9WGZ1;P9WGY9;P9WGY7;P9WGY5;P9WGI1 1-347;1-1178;1-1316;1-110;1-528, |))
[3] = target: E. coli RNAP core enzyme;sigmaA (Escherichia coli;Mycobacterium …, UniProt P0A7Z4;P0A8V2;P0A8T7;P0A800;P9WGI1 1-329;1-1342;1-1407;1-91;1-528, |)
[4] = target: T1, RNAP core enzyme (alpha2 beta beta' …); remark: listed apart in the source

| Binder | binding result [1] | binding result [2] | binding result [3] | binding result [4] |
| --- | --- | --- | --- | --- |
| B1 | binds | binds | binds | – |
| B2 | – | – | – | binds |
